Measurements published in the RNAGym collection of RNA variant scans (doi:10.1073/pnas.2313332121).

B1: TPR t1 (parent)
chain: GACCAAUCUGCCCUCAGAGCUCGAGAACAUCUUCGGAUGCAGAGGAGGCAGGCUUCGGUGGCGCGAUAGCGCCAACGUCCUCAACCUCCAAUGCAUCCCACCACAUGAUGAUGCCUGAAGAGCCUUGGUUUUUUG

Variants of: B1
Experiment: polymerase ribozyme fitness, log enrichment relative to wild type (log ratio); higher = more active; in vitro selection for triplet polymerase activity
In short: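 Mutant libraries for each subunit of a heterodimeric triplet polymerase ribozyme were made by PCR and then transcribed. Each library underwent one round of in vitro selection in triplicate: annealing with a biotinylated primer, the partner subunit and triplets, frozen incubation at −7 °C, gel excision of extended constructs, streptavidin-bead capture and RT-PCR. Input and output libraries were Illumina-sequenced, and only genotypes with ≥10 input reads and ≥1 read per output were kept. Fitness is the logarithm, base 2, of genotype enrichment over wild-type enrichment, computed from inverse-variance-weighted replicate averages.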

Row | Variant | polymerase ribozyme fitness (log ratio)
1 | A27G C86U | -2.44
2 | A6U G45A G52A A75U | -0.0939
3 | G51A A66U | -5.73
4 | C11U G60U U78C U116C | -2.11
5 | G48U C56A A105G A111G | -5.01
6 | U87C A90G C94U | 0.339
7 | A6C C15U | -1.98
8 | G58A U81A | -0.982
9 | G60A C123A | 0.222
10 | A50U G51A U87G U106A | -2.51
11 | A29G G60A C86U | -2.06
12 | C8U C13A A37U G47A C62U G122A | -1.54
13 | C12G C15U C31A G44A G47A G63C A84U G110C | -6.78
14 | C40G C88G U125G | -6.8
15 | G36U G122A U131A | -1.83
16 | A2U A16G C72A | -3.41
17 | C11U G52U C70A | -1.84
18 | G47C U54G G58C G69U C123G | 0.703
19 | C3U G61U U78G U92G G120A G127U | -2.24
20 | A5G G60A G120U | 0.955
21 | C8G C12U G63A G122A C123U | 0.85

Row | Variant | polymerase ribozyme fitness (log ratio)
22 | U9C G120C | 1.46
23 | G45U A46U U106G | -3.7
24 | A43U G52U A68G C124U | -5.64
25 | A46C C56A A91U C97U | -3.95
26 | A41U C101G | -3.73
27 | C12U U54A C64U | 0.381
28 | A46C G61U U106A | 0.556
29 | A18C C115U | -2.17
30 | G44A G60A U106G U112A | -1.83
31 | C34A C123U | -1.54
32 | C11U G122A | -1.12
33 | A37C A95U | -0.484
34 | U92A G113A | -2.8
35 | G61A G69C | -3.18
36 | G10U C13G C80U G135U | -1.95
37 | C31A G63U C88G A121U | -6.64
38 | U55C G58A | 0.121
39 | A18U A37C C101A | -4.02
40 | G10C G61U | -1.1
41 | U54A U116G | -1.91
42 | C13U C88U | 0.907

Row | Variant | polymerase ribozyme fitness (log ratio)
43 | C53A G71A C85A | -4.06
44 | C72U C124G | 1.47
45 | C28A U54A G71U G110U | 1.85
46 | G44A G52U U87A | -2.35
47 | C80A | -2.86
48 | G63A G127U | -1.36
49 | G36U G45C C89U U132A | -2.62
50 | A27C C86G U133A | -5.16
51 | U33C U132A | -4.81
52 | G36U C76A C98G U109C C114G | -6.07
53 | A5U G60U | -0.228
54 | G45A G63A A95G C101G U130C | -3.14
55 | C12U C102A | -1.07
56 | C64U C101A | -1.22
57 | G10U G60C G122A | 0.255
58 | G45A C94U G120C | 0.045
59 | C15A C114U | -4.61
60 | G47U C115U | -2.5
61 | G45A G51A | -3.66
62 | U9A A50C | 0.19
63 | G48U U55C | -1.53

Row | Variant | polymerase ribozyme fitness (log ratio)
64 | U116C A119G | 1.96
65 | C12U U55G U59C U133A | -0.128
66 | A6G C40G U59A A103U | -6.42
67 | C13U C20G | -4.55
68 | C22G G51A G61U U112G | -5.05
69 | A27C C53U C72U U125A | -3.83
70 | C4U C114A G128C | -4.42
71 | C8G G36U U54C A91C C124A | -0.94
72 | U112C C124G G128A | -0.155
73 | C82G C94G | -2.14
74 | C49U G120C | 0.88
75 | C11U G19A C53G U55A A91C | -2.36
76 | C13A C56U C80A | -2.82
77 | G17U C49U | -2.42
78 | G57U G71A | -0.471
79 | C80G A119U | -2.85
80 | C22A C53U G113U | -4.93
81 | A24G G51A U78C | -6.04
82 | C4G C73U | -1.69
83 | G35A G122U C123G | -4
